Where two headings read alike, the source gives them in different places.
What was measured:
[1] = target: human mGluR5 extracellular domain (human-mGluR5-ECD) (human) (UniProt P41594); assay: HTRF, soluble ECD
[2] = target: full-length (FL) human mGluR5 on BA/F3-mGluR5 clone 10C9 cells (human) (UniProt P41594); assay: cell-based or functional assay
[3] = target: human mGluR5 extracellular domain (human-mGluR5-ECD) (human) (UniProt P41594); assay: HTRF, soluble ECD; remark: listed apart in the source
[4] = target: T1, human mGluR1 extracellular domain (human-mGluR1-ECD) (human, UniProt Q13255 19-592, limits assumed); assay: HTRF, soluble ECD
T1 construct: ECD construct made 'in a similar fashion' to the human mGluR5 one; also called hu-mGluR1
Experimental: (§1) Binding of antibodies to mGluR5/mGluRJ measured via Homogeneous Time-Resolved Fluorescence (HTRF). Binding assays were performed using HTRF reagents from CisBio. Ten microliters of an antibody dilution series (highest final concentration of 30 nM) was incubated with 10 μl of mGluR-ECD (10 nM final concentration) in HTRF buffer (50 mM Phosphate buffer pH7, 0.8M KF (potassium fluoride), 0.2% BSA). Twenty microliters of Europium-labeled anti-hu-Fc donor (2 nM final concentration, CisBio Catalog No. 61HFCKLB) and 20 μl of XL665-labeled anti-Flag acceptor (60 nM final concentration, CisBio Catalog No. 61FG2XLB) were added to each well and incubated for 1 hour at room temperature. Alternatively, the antibody dilution series was incubated with 10 μl of biotinylated mGluR-ECD (10 nM final concentration), and 20 μl of Europium-labeled anti-hu-Fc donor (2 nM final concentration) and 20 μl of d2-labeled streptavidin acceptor (60 nM final concentration, CisBio Catalog No. 610SADLB) were added to each well. Fluorescence was measured at 620 and 665 nm with a delay of 300 μsec. Results were expressed as the ratio of signal at 665 nm over 620 nm. EC₅₀ values were calculated for binding of Ab1-Ab23 to human-mGluR5-ECD, of Ab1-Ab21 to rat-mGluR5-ECD, and of Ab1, Ab2 and Ab4-Ab12 to monkey-mGluR5-ECD and to human-mGluR1-ECD (TABLE 1).

[5] = target: T2, rat mGluR5 extracellular domain (rat-mGluR5-ECD) (rat, UniProt P31424 21-504); assay: HTRF, soluble ECD
T2 construct: ECD construct made 'in a similar fashion' to the human one
Experimental: as §1

[6] = target: T3, cynomolgus monkey mGluR5 extracellular domain (monkey-mGluR5-ECD) (cynomolgus monkey, UniProt P41594 21-580 (human entry), limits assumed); assay: HTRF, soluble ECD
T3 construct: ECD construct made 'in a similar fashion' to the human one; also called cyno-mGluR5
Experimental: as §1

[7] = target: full-length (FL) human mGluR5 on BA/F3-mGluR5 clone 10C9 cells (human) (UniProt P41594); assay: flow cytometry, BA/F3-mGluR5 10C9 cells, 10 ug/ml antibody
[8] = target: full-length (FL) human mGluR5 on BA/F3-mGluR5 clone 10C9 cells (human) (UniProt P41594); assay: flow cytometry, BA/F3-mGluR5 10C9 cells; high end tied to Ab4 by Table 2

human mGluR5 extracellular domain (human-mGluR5-ECD) (human), sequence (P41594 other isoform, or with tags, fused parts or gaps): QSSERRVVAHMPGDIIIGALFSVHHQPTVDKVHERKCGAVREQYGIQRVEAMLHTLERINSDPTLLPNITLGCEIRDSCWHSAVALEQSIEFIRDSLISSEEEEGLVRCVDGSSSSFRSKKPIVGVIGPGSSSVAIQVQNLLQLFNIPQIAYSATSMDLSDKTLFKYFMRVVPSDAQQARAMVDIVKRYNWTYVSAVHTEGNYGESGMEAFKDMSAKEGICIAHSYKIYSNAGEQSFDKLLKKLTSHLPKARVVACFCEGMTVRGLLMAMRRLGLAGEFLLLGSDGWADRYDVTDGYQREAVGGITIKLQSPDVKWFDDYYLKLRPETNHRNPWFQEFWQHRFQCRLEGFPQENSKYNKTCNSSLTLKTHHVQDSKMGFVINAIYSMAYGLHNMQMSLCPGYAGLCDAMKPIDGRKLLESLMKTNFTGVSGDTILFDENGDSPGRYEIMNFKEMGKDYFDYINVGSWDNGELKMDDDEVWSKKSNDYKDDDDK
T2 sequence (P31424 other isoform, or with tags, fused parts or gaps limits assumed, form in doubt): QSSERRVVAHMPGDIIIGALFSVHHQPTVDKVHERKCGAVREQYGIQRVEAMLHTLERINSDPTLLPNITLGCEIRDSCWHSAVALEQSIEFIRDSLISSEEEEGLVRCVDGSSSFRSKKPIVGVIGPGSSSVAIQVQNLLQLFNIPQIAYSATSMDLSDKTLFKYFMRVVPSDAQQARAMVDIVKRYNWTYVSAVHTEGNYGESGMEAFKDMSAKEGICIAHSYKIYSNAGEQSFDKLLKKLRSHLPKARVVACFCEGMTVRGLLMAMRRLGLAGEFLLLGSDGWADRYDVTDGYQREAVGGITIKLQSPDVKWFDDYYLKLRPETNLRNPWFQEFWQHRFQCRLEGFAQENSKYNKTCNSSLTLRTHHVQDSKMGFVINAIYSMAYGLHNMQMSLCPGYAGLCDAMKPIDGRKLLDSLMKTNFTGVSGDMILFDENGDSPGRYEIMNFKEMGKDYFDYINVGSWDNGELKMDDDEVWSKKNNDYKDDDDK
T3 sequence (P41594 other isoform, or with tags, fused parts or gaps limits assumed): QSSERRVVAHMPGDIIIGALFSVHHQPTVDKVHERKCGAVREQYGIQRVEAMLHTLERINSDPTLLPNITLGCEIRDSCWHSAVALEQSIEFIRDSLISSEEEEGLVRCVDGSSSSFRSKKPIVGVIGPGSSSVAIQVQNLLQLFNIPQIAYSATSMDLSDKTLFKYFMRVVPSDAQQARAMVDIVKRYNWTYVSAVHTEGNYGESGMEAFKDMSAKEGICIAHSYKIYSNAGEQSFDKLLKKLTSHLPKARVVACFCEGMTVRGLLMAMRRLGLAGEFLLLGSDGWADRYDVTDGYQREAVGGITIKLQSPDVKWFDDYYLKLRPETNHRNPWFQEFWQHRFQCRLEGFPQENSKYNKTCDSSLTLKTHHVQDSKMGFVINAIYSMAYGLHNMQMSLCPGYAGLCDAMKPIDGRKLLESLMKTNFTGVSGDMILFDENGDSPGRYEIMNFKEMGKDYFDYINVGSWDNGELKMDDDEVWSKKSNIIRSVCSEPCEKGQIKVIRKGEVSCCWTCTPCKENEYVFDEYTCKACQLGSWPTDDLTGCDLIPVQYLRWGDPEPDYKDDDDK
T1 sequence (Q13255 other isoform, or with tags, fused parts or gaps limits assumed): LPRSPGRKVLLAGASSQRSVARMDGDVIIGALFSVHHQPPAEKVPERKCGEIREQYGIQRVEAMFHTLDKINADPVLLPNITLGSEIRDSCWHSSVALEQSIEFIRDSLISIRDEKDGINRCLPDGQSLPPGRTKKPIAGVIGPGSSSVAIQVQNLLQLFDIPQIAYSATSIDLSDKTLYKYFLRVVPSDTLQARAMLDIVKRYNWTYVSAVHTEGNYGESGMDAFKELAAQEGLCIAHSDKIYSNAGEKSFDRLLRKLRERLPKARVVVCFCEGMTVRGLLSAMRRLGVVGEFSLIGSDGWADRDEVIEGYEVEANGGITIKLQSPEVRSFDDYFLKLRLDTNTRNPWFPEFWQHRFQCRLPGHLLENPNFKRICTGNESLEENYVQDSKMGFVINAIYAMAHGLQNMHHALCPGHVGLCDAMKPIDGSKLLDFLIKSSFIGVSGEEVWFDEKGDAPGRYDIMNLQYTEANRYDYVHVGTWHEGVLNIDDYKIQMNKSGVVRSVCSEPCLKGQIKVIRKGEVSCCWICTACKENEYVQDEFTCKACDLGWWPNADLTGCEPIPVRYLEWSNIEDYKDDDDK

EC50 [1]: 0.293 nM
pERK Assay Inhibition IC50-nM [2]: 0.34 nM
EC50 [3]: < 2 nM
binding result [4]: no binding
EC50 [5]: 0.332 nM
EC50 [6]: 0.286 nM
mGluR5 (FL) cell binding-fold over background [7]: 41.8 fold
fold signal over background [8]: 10 to 42 fold
B1: mGluR5 Ab4 (antibody, V domains shown)
VH: QQQLEESGGGLVKPGGTLTLTCKGSGIDFNDYQYMCWVRQAPGKGLEWIACIYNGDGETYYAHWAKGRFTISKTSSTTVTLQMTSLTAADTATYFCARGSGVGSYGYNFWGPGTLVTVSS
VL: DIVMTQTPASVEAAVGGTVTIKCQASESIYSNLAWYQQKAGQPPKLLIYRASNLASGVPSRFKGSGSGTEFTLTISDLECADAATYYCQGYYASTVTNGFGGGTEVVVKR
notes: Rabbit variable regions on human heavy and light chain constant regions (chimeric)
